What is called Kd is the constant that tells how readily two partners part at equilibrium. A lower Kd goes with tighter binding.

The results in this text go back to patent publication US20250049935.

Series [1] deals with thrombin (in pooled normal plasma) (Homo sapiens) (UniProt P00734+P00734). In words: inhibition. Conditions: two HD1 aptamers flanking a poly(serinol phosphodiester) backbone of 30 amine-serinol units (X), grafted with 10 kDa PEG side chains; 5 uM in human plasma; almost three-fold longer clotting; reversed by LNA antidote.
Series [2] has as its target thrombin (in C57BL/6 mouse plasma) (Mus musculus) (UniProt P19221+P19221). In words: inhibition. Conditions: two HD1 aptamers flanking a poly(serinol phosphodiester) backbone of 30 amine-serinol units (X), grafted with 10 kDa PEG side chains; in vivo i.v. 15 nmol in C57BL/6 mice; also 3-fold PT; neutralized by LNA antidote.
For series [3], the target named is alpha thrombin (Homo sapiens) (UniProt P00734+P00734). Briefly: MST. To be noted: two HD1 aptamers flanking a poly(serinol phosphodiester) backbone of 30 amine-serinol units (X), grafted with 10 kDa PEG side chains; 20 mM HEPES pH 7.4, 150 mM NaCl, 2 mM CaCl2, 0.05% Tween; 10 nM thrombin.
The target in series [4] is DNase I (UniProt P00639). Briefly: cleavage_in_vitro. To be noted: 10 mM Tris-HCl pH 7.5, 2.5 mM MgCl2, 0.5 mM CaCl2, 100 nM DNA, 0.6 unit/mL.
Sequence of DNase I (P00639 23-282): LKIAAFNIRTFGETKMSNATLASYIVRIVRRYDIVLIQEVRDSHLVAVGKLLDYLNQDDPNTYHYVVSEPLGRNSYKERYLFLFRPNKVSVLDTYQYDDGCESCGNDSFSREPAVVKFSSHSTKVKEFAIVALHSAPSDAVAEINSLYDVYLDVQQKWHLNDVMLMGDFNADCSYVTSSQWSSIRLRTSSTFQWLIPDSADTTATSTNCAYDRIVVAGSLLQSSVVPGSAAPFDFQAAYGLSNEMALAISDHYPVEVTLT

As for “GGTTGGTGTGGTTGGTTTTTNNNNNNNNNNNNNNNNNNNNNNNNNNNNNNTTTTTGGTTGGTGTGGTTGG [PSP pacHD1]”, in series [1], the activity (fold aPTT vs vehicle) amounted to 3. The activity (fold aPTT vs blank) in series [2] came out at 5. In series [3], the Kd is 6.9 nM.

With “NNNNNNNNNNNNNNNTTTTTTTTTTTTTTT / AAAAAAAAAAAAAAA [Doubler PSP pacDNA:dA15 duplex]”, the activity in series [4] (symmetric doubler with two 15-unit poly(serinol phosphodiester) arms grafted with 10 kDa PEG) worked out at 38.1 min.

The sequence “TTTTTTTTTTTTTTT (double strand) [dT15:dA15 duplex]” had an activity in series [4] of 13.9 min.

In turn, “TTTTTTTTTTTTTTTNNNNNNNNNNNNNNNNNNNNNNNNNNNNNNTTTTTTTTTTTTTTT / AAAAAAAAAAAAAAA [PSP pacDNA:dA15 duplex]” gave an activity in series [4] (poly(serinol phosphodiester) backbone of 30 units grafted with 10 kDa PEG) of 32.2 min.
